{"source": "patent US20060024300A1", "key": {"[1]": {"biological_target": "CD20 (human) (UniProt P11836)", "sequence (P11836 whole entry)": "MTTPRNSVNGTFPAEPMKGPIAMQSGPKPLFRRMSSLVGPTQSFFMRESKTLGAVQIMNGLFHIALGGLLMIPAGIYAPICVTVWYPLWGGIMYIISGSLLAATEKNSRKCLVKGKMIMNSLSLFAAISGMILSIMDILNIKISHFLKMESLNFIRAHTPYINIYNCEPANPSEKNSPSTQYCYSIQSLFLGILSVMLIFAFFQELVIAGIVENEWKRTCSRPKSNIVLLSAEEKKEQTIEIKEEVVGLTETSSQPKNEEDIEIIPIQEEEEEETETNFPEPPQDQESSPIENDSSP", "assay": "cell-based or functional assay"}, "[2]": {"biological_target": "CD20 (human) (UniProt P11836)", "assay": "Scatchard analysis, cold antibody against 125I-2H7.v16 on WIL2-S cells"}}, "data": [{"substance": "Rituxan (rituximab) (antibody)", "values": [{"measurement": "ADCC on WIL2-S cells, EC50(variant)/EC50(2H7.v16)", "setting": "[1]", "value": 5.3}, {"measurement": "ADCC on WIL2-S cells, EC50(variant)/EC50(Rituxan)", "setting": "[1]", "value": 1}, {"measurement": "CDC on WIL2-S cells, EC50(variant)/EC50(Rituxan)", "setting": "[1]", "value": 1}, {"measurement": "fraction of Annexin V stained Ramos cells at 10 nM crosslinked antibody", "setting": "[1]", "value": 16.5, "unit": "%"}, {"measurement": "fraction of doubly labeled (Annexin V and propidium iodide) Ramos cells at 10 nM", "setting": "[1]", "value": 38, "unit": "%"}, {"measurement": "live Ramos cells counted per 10 s at 10 nM (cells per 10 s)", "setting": "[1]", "value": 3100}, {"measurement": "Kd", "setting": "[2]", "value": 0.99, "unit": "nM"}]}]}
